Source: article PMC10334784 (Proceedings of the National Academy of Sciences of the …, 2023)

B8: HCoV-OC43 nucleocapsid (N) protein, 2X-StrepTag tagged (natural protein)
chain: MSFTPGKQSSSRASSGNRSGNGILKWADQSDQVRNVQTRGRRAQPKQTATSQQPSGGNVVPYYSWFSGITQFQKGKEFEFVEGQGPPIAPGVPATEAKGYWYRHNRGSFKTADGNQRQLLPRWYFYYLGTGPHAKDQYGTDIDGVYWVASNQADVNTPADIVDRDPSSDEAIPTRFPPGTVLPQGYYIEGSGRSAPNSRSTSRTSSRASSAGSRSRANSGNRTPTSGVTPDMADQIASLVLAKLGKDATKPQQVTKHTAKEVRQKILNKPRQKRSPNKQCTVQQCFGKRGPNQNFGGGEMLKLGTSDPQFPILAELAPTAGAFFFGSRLELAKVQNLSGNPDEPQKDVYELRYNGAIRFDSTLSGFETIMKVLNENLNAYQQQDGMMNMSPKPQRQRGHKNGQGENDNISVAVPKSRVQQNKSRELTAEDISLLKKMDEPYTEDTSEI

Experiments:
[1] = target: B8; test: BLI
CXCL12α = CXCL12α (human, UniProt P48061-2 22-89); test: BLI
Chain of CXCL12α (P48061 22-89): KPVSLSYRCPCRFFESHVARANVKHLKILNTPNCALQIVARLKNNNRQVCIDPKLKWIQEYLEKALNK

B1: CCL5 (ligand)
chain: SPYSSDTTPCCFAYIARPLPRAHIKEYFYTSGKCSNPAVVFVTRKNRQVCANPEKKWVREYINSLEMS
[1]
  Kd: 56000 nM
  koff: 0.015 s⁻¹
  kon: 2100 M⁻¹ s⁻¹

B2: CCL21 (ligand)
chain: SDGGAQDCCLKYSQRKIPAKVVRSYRKQEPSLGCSIPAILFLPRKRSQAELCADPKELWVQQLMQHLDKTPSPQKPAQGCRKDRGASKTGKKGKGSKGCKRTERSQTPKGP
[1]
  Kd: 290 nM
  koff: 0.012 s⁻¹
  kon: 67000 M⁻¹ s⁻¹

B3: CCL25 (ligand)
chain: QGVFEDCCLAYHYPIGWAVLRRAWTYRIQEVSGSCNLPAAIFYLPKRHRKVCGNPKSREVQRAMKLLDARNKVFAKLHHNTQTFQAGPHAVKKLSSGNSKLSSSKFSNPISSSKRNVSLLISANSGL
[1]
  Kd: 610 nM
  koff: 0.0048 s⁻¹
  kon: 8300 M⁻¹ s⁻¹

B4: CCL26 (ligand)
chain: TRGSDISKTCCFQYSHKPLPWTWVRSYEFTSNSCSQRAVIFTTKRGKKVCTHPRKKWVQKYISLLKTPKQL
[1]
  Kd: 620 nM
  koff: 0.014 s⁻¹
  kon: 20000 M⁻¹ s⁻¹

B5: CCL28 (ligand)
chain: SEAILPIASSCCTEVSHHISRRLLERVNMCRIQRADGDCDLAAVILHVKRRRICVSPHNHTVKQWMKVQAAKKNGKGNVCHRKKHHGKRNSNRAHQGKHETYGHKTPY
[1]
  Kd: 27 nM
  koff: 0.0015 s⁻¹
  kon: 60000 M⁻¹ s⁻¹

B6: CXCL9 (ligand)
chain: TPVVRKGRCSCISTNQGTIHLQSLKDLKQFAPSPSCEKIEIIATLKNGVQTCLNPDSADVKELIKKWEKQVSQKKKQKNGKKHQKKKVLKVRKSQRSRQKKTT
[1]
  Kd: 29 nM
  koff: 0.0022 s⁻¹
  kon: 82000 M⁻¹ s⁻¹

B7: CXCL11 (ligand)
chain: FPMFKRGRCLCIGPGVKAVKVADIEKASIMYPSNNCDKIEVIITLKENKGQRCLNPKSKQARLIIKKVERKNF
[1]
  Kd: 730 nM
  koff: 0.012 s⁻¹
  kon: 18000 M⁻¹ s⁻¹

## B8
CXCL12α
  Kd: 0.46 nM
  koff: 3.7e-05 s⁻¹
  kon: 62000 M⁻¹ s⁻¹

B9: CCL11 (ligand)
chain: not shown
[1]
  Kd: 1400 nM
  koff: 0.021 s⁻¹
  kon: 17000 M⁻¹ s⁻¹

B10: CXCL13 (ligand)
chain: VLEVYYTSLRCRCVQESSVFIPRRFIDRIQILPRGNGCPRKEIIVWKKNKSIVCVDPQAEWIQRMMEVLRKRSSSTLPVPVFKRKIP
[1]
  Kd: 140 nM
  koff: 0.0046 s⁻¹
  kon: 44000 M⁻¹ s⁻¹

B11: CXCL14 (ligand)
chain: SKCKCSRKGPKIRYSDVKKLEMKPKYPHCEEKMVIITTKSVSRYRGQEHCLHPKLQSTKRFIKWYNAWNEKRRVYEE
[1]
  Kd: 580 nM
  koff: 0.0063 s⁻¹
  kon: 12000 M⁻¹ s⁻¹

B12: IL27 (complex)
chain 1: FPRPPGRPQLSLQELRREFTVSLHLARKLLSEVRGQAHRFAESHLPGVNLYLLPLGEQLPDVSLTFQAWRRLSDPERLCFISTTLQPFHALLGGLGTQGRWTNMERMQLWAMRLDLRDLQRHLRFQVLAAGFNLPEEEEEEEEEEEEERKGLLPGALGSALQGPAQVSWPQLLSTYRLLHSLELVLSRAVRELLLLSKAGHSVWPLGFPTLSPQP
chain 2: RKGPPAALTLPRVQCRASRYPIAVDCSWTLPPAPNSTSPVSFIATYRLGMAARGHSWPCLQQTPTSTSCTITDVQLFSMAPYVLNVTAVHPWGSSSSFVPFITEHIIKPDPPEGVRLSPLAERQLQVQWEPPGSWPFPEIFSLKYWIRYKRQGAARFHRVGPIEATSFILRAVRPRARYYVQVAAQDLTDYGELSDWSLPATATMSLGK
[1]
  Kd: 55 nM
  koff: 0.0024 s⁻¹
  kon: 51000 M⁻¹ s⁻¹

B13: CCL13 (ligand)
chain: not shown
[1]
  Kd: 1600 nM
  koff: 0.025 s⁻¹
  kon: 19000 M⁻¹ s⁻¹
